Experimental data as given in publication PMC7954794, “Protein context shapes the specificity of SH3 domain-mediated interactions in vivo” (Nature Communications, 2021).

B1: S. cerevisiae Abp1 (full length; SH3 domain 535-592 mutated) / Hua2 (parent)
chain 1: MALEPIDYTTHSREIDAEYLKIVRGSDPDTTWLIISPNAKKEYEPESTGSSFHDFLQLFDETKVQYGLARVSPPGSDVEKIIIIGWCPDSAPLKTRASFAANFAAVANNLFKGYHVQVTARDEDDLDENELLMKISNAAGARYSIQTSSKQQGKASTPPVKKSFTPSKSPAPVSKKEPVKTPSPAPAAKISSRVNDNNDDDDWNEPELKERDFDQAPLKPNQSSYKPIGKIDLQKVIAEEKAKEDPRLVQKPTAAGSKIDPSSDIANLKNESKLKRDSEFNSFLGTTKPPSMTESSLKNDDDKVIKGFRNEKSPAQLWAERKAKQNSGNAETKAEAPKPEVPEDEPEGEPDVKDLKSKFEGLAASEKEEEEMENKFAPPPKKSEPTIISPKPFSKPQEPVKAEEAEQPKTDYKKIGNPLPGMHIEADNEEEPEENDDDWDDDEDEAAQPPLPSRNVASGAPVQKEEPEQEEIAPSLPSRNSIPAPKQEEAPEQAPEEEIEEEAEEAAPQLPSRSSAAPPPPPRRATPEKKPKENPWATAEYDYDAAEDNELTFVENDKIINIEFVDDDWWLGELEKDGSKGLFPSNYVSLGN
chain 2: MQQTKFGKMYLDHDSVVEYSEDEIVEADRITLGYKKRLSMIENQMRHLLEDFSLDVQQIEPILADLQKYYDAFLQLLQKRNKSLQCKRSTHQPVPSPMNSQTSTNAKVNLSGKLMKFQLNSVQKFDEENILRILQNKIEFEHYFQIDKGKKQKVLLLAVYQCLNGPTRLHKVLNIEGIIHNNSIRTILGKQVSSSKWTVFLYDVKLVLLAHRQDVPNLETSKMIVRYGDLFPCALYFKDHTAY

Variants of: B1
Test: DHFR protein-fragment complementation in yeast (Abp1-DHFR F[1,2] x partner-DHFR F[3]), deep mutational scanning, second methotrexate selection vs reference
Conditions: with Hua2; S. cerevisiae, DHFR-PCA selection in liquid with methotrexate at 30 C, two 72 h selections (the score uses the second); reference = the pre-selection culture; value at the no-binding floor (a bound); scale: DMS score: mean over two replicates of log2(f_test/f_ref + 0.5)/ln 2, minus the synonymous-codon median

screen value | Variant
-3 | chain 1 MALEPIDYTTHSREIDAEYLKIVRGSDPDTTWLIISPNAKKEYEPESTGSSFHDFLQLFDETKVQYGLARVSPPGSDVEKIIIIGWCPDSAPLKTRASFAANFAAVANNLFKGYHVQVTARDEDDLDENELLMKISNAAGARYSIQTSSKQQGKASTPPVKKSFTPSKSPAPVSKKEPVKTPSPAPAAKISSRVNDNNDDDDWNEPELKERDFDQAPLKPNQSSYKPIGKIDLQKVIAEEKAKEDPRLVQKPTAAGSKIDPSSDIANLKNESKLKRDSEFNSFLGTTKPPSMTESSLKNDDDKVIKGFRNEKSPAQLWAERKAKQNSGNAETKAEAPKPEVPEDEPEGEPDVKDLKSKFEGLAASEKEEEEMENKFAPPPKKSEPTIISPKPFSKPQEPVKAEEAEQPKTDYKKIGNPLPGMHIEADNEEEPEENDDDWDDDEDEAAQPPLPSRNVASGAPVQKEEPEQEEIAPSLPSRNSIPAPKQEEAPEQAPEEEIEEEAEEAAPQLPSRSSAAPPPPPRRATPEKKPKENPWATAEYDYDAAEDNELTFVENDKIINIEFVDTDWWLGELEKDGSKGLFPSNYVSLGN [chain 1 D567T]
< -3.06 | chain 1 MALEPIDYTTHSREIDAEYLKIVRGSDPDTTWLIISPNAKKEYEPESTGSSFHDFLQLFDETKVQYGLARVSPPGSDVEKIIIIGWCPDSAPLKTRASFAANFAAVANNLFKGYHVQVTARDEDDLDENELLMKISNAAGARYSIQTSSKQQGKASTPPVKKSFTPSKSPAPVSKKEPVKTPSPAPAAKISSRVNDNNDDDDWNEPELKERDFDQAPLKPNQSSYKPIGKIDLQKVIAEEKAKEDPRLVQKPTAAGSKIDPSSDIANLKNESKLKRDSEFNSFLGTTKPPSMTESSLKNDDDKVIKGFRNEKSPAQLWAERKAKQNSGNAETKAEAPKPEVPEDEPEGEPDVKDLKSKFEGLAASEKEEEEMENKFAPPPKKSEPTIISPKPFSKPQEPVKAEEAEQPKTDYKKIGNPLPGMHIEADNEEEPEENDDDWDDDEDEAAQPPLPSRNVASGAPVQKEEPEQEEIAPSLPSRNSIPAPKQEEAPEQAPEEEIEEEAEEAAPQLPSRSSAAPPPPPRRATPEKKPKENPWATAEYDYDAAEDNELTFVENDKIINIEFVDRDWWLGELEKDGSKGLFPSNYVSLGN [chain 1 D567R]
< -3.06 | chain 1 MALEPIDYTTHSREIDAEYLKIVRGSDPDTTWLIISPNAKKEYEPESTGSSFHDFLQLFDETKVQYGLARVSPPGSDVEKIIIIGWCPDSAPLKTRASFAANFAAVANNLFKGYHVQVTARDEDDLDENELLMKISNAAGARYSIQTSSKQQGKASTPPVKKSFTPSKSPAPVSKKEPVKTPSPAPAAKISSRVNDNNDDDDWNEPELKERDFDQAPLKPNQSSYKPIGKIDLQKVIAEEKAKEDPRLVQKPTAAGSKIDPSSDIANLKNESKLKRDSEFNSFLGTTKPPSMTESSLKNDDDKVIKGFRNEKSPAQLWAERKAKQNSGNAETKAEAPKPEVPEDEPEGEPDVKDLKSKFEGLAASEKEEEEMENKFAPPPKKSEPTIISPKPFSKPQEPVKAEEAEQPKTDYKKIGNPLPGMHIEADNEEEPEENDDDWDDDEDEAAQPPLPSRNVASGAPVQKEEPEQEEIAPSLPSRNSIPAPKQEEAPEQAPEEEIEEEAEEAAPQLPSRSSAAPPPPPRRATPEKKPKENPWATAEYDYDAAEDNELTFVENDKIINIEFVDPDWWLGELEKDGSKGLFPSNYVSLGN [chain 1 D567P]
-3.02 | chain 1 MALEPIDYTTHSREIDAEYLKIVRGSDPDTTWLIISPNAKKEYEPESTGSSFHDFLQLFDETKVQYGLARVSPPGSDVEKIIIIGWCPDSAPLKTRASFAANFAAVANNLFKGYHVQVTARDEDDLDENELLMKISNAAGARYSIQTSSKQQGKASTPPVKKSFTPSKSPAPVSKKEPVKTPSPAPAAKISSRVNDNNDDDDWNEPELKERDFDQAPLKPNQSSYKPIGKIDLQKVIAEEKAKEDPRLVQKPTAAGSKIDPSSDIANLKNESKLKRDSEFNSFLGTTKPPSMTESSLKNDDDKVIKGFRNEKSPAQLWAERKAKQNSGNAETKAEAPKPEVPEDEPEGEPDVKDLKSKFEGLAASEKEEEEMENKFAPPPKKSEPTIISPKPFSKPQEPVKAEEAEQPKTDYKKIGNPLPGMHIEADNEEEPEENDDDWDDDEDEAAQPPLPSRNVASGAPVQKEEPEQEEIAPSLPSRNSIPAPKQEEAPEQAPEEEIEEEAEEAAPQLPSRSSAAPPPPPRRATPEKKPKENPWATAEYDYDAAEDNELTFVENDKIINIEFVDSDWWLGELEKDGSKGLFPSNYVSLGN [chain 1 D567S]
< -3.06 | chain 1 MALEPIDYTTHSREIDAEYLKIVRGSDPDTTWLIISPNAKKEYEPESTGSSFHDFLQLFDETKVQYGLARVSPPGSDVEKIIIIGWCPDSAPLKTRASFAANFAAVANNLFKGYHVQVTARDEDDLDENELLMKISNAAGARYSIQTSSKQQGKASTPPVKKSFTPSKSPAPVSKKEPVKTPSPAPAAKISSRVNDNNDDDDWNEPELKERDFDQAPLKPNQSSYKPIGKIDLQKVIAEEKAKEDPRLVQKPTAAGSKIDPSSDIANLKNESKLKRDSEFNSFLGTTKPPSMTESSLKNDDDKVIKGFRNEKSPAQLWAERKAKQNSGNAETKAEAPKPEVPEDEPEGEPDVKDLKSKFEGLAASEKEEEEMENKFAPPPKKSEPTIISPKPFSKPQEPVKAEEAEQPKTDYKKIGNPLPGMHIEADNEEEPEENDDDWDDDEDEAAQPPLPSRNVASGAPVQKEEPEQEEIAPSLPSRNSIPAPKQEEAPEQAPEEEIEEEAEEAAPQLPSRSSAAPPPPPRRATPEKKPKENPWATAEYDYDAAEDNELTFVENDKIINIEFVDDLWWLGELEKDGSKGLFPSNYVSLGN [chain 1 D568L]
< -3.06 | chain 1 MALEPIDYTTHSREIDAEYLKIVRGSDPDTTWLIISPNAKKEYEPESTGSSFHDFLQLFDETKVQYGLARVSPPGSDVEKIIIIGWCPDSAPLKTRASFAANFAAVANNLFKGYHVQVTARDEDDLDENELLMKISNAAGARYSIQTSSKQQGKASTPPVKKSFTPSKSPAPVSKKEPVKTPSPAPAAKISSRVNDNNDDDDWNEPELKERDFDQAPLKPNQSSYKPIGKIDLQKVIAEEKAKEDPRLVQKPTAAGSKIDPSSDIANLKNESKLKRDSEFNSFLGTTKPPSMTESSLKNDDDKVIKGFRNEKSPAQLWAERKAKQNSGNAETKAEAPKPEVPEDEPEGEPDVKDLKSKFEGLAASEKEEEEMENKFAPPPKKSEPTIISPKPFSKPQEPVKAEEAEQPKTDYKKIGNPLPGMHIEADNEEEPEENDDDWDDDEDEAAQPPLPSRNVASGAPVQKEEPEQEEIAPSLPSRNSIPAPKQEEAPEQAPEEEIEEEAEEAAPQLPSRSSAAPPPPPRRATPEKKPKENPWATAEYDYDAAEDNELTFVENDKIINIEFVDDKWWLGELEKDGSKGLFPSNYVSLGN [chain 1 D568K]
< -3.06 | chain 1 MALEPIDYTTHSREIDAEYLKIVRGSDPDTTWLIISPNAKKEYEPESTGSSFHDFLQLFDETKVQYGLARVSPPGSDVEKIIIIGWCPDSAPLKTRASFAANFAAVANNLFKGYHVQVTARDEDDLDENELLMKISNAAGARYSIQTSSKQQGKASTPPVKKSFTPSKSPAPVSKKEPVKTPSPAPAAKISSRVNDNNDDDDWNEPELKERDFDQAPLKPNQSSYKPIGKIDLQKVIAEEKAKEDPRLVQKPTAAGSKIDPSSDIANLKNESKLKRDSEFNSFLGTTKPPSMTESSLKNDDDKVIKGFRNEKSPAQLWAERKAKQNSGNAETKAEAPKPEVPEDEPEGEPDVKDLKSKFEGLAASEKEEEEMENKFAPPPKKSEPTIISPKPFSKPQEPVKAEEAEQPKTDYKKIGNPLPGMHIEADNEEEPEENDDDWDDDEDEAAQPPLPSRNVASGAPVQKEEPEQEEIAPSLPSRNSIPAPKQEEAPEQAPEEEIEEEAEEAAPQLPSRSSAAPPPPPRRATPEKKPKENPWATAEYDYDAAEDNELTFVENDKIINIEFVDDRWWLGELEKDGSKGLFPSNYVSLGN [chain 1 D568R]
< -3.06 | chain 1 MALEPIDYTTHSREIDAEYLKIVRGSDPDTTWLIISPNAKKEYEPESTGSSFHDFLQLFDETKVQYGLARVSPPGSDVEKIIIIGWCPDSAPLKTRASFAANFAAVANNLFKGYHVQVTARDEDDLDENELLMKISNAAGARYSIQTSSKQQGKASTPPVKKSFTPSKSPAPVSKKEPVKTPSPAPAAKISSRVNDNNDDDDWNEPELKERDFDQAPLKPNQSSYKPIGKIDLQKVIAEEKAKEDPRLVQKPTAAGSKIDPSSDIANLKNESKLKRDSEFNSFLGTTKPPSMTESSLKNDDDKVIKGFRNEKSPAQLWAERKAKQNSGNAETKAEAPKPEVPEDEPEGEPDVKDLKSKFEGLAASEKEEEEMENKFAPPPKKSEPTIISPKPFSKPQEPVKAEEAEQPKTDYKKIGNPLPGMHIEADNEEEPEENDDDWDDDEDEAAQPPLPSRNVASGAPVQKEEPEQEEIAPSLPSRNSIPAPKQEEAPEQAPEEEIEEEAEEAAPQLPSRSSAAPPPPPRRATPEKKPKENPWATAEYDYDAAEDNELTFVENDKIINIEFVDDMWWLGELEKDGSKGLFPSNYVSLGN [chain 1 D568M]
< -3.06 | chain 1 MALEPIDYTTHSREIDAEYLKIVRGSDPDTTWLIISPNAKKEYEPESTGSSFHDFLQLFDETKVQYGLARVSPPGSDVEKIIIIGWCPDSAPLKTRASFAANFAAVANNLFKGYHVQVTARDEDDLDENELLMKISNAAGARYSIQTSSKQQGKASTPPVKKSFTPSKSPAPVSKKEPVKTPSPAPAAKISSRVNDNNDDDDWNEPELKERDFDQAPLKPNQSSYKPIGKIDLQKVIAEEKAKEDPRLVQKPTAAGSKIDPSSDIANLKNESKLKRDSEFNSFLGTTKPPSMTESSLKNDDDKVIKGFRNEKSPAQLWAERKAKQNSGNAETKAEAPKPEVPEDEPEGEPDVKDLKSKFEGLAASEKEEEEMENKFAPPPKKSEPTIISPKPFSKPQEPVKAEEAEQPKTDYKKIGNPLPGMHIEADNEEEPEENDDDWDDDEDEAAQPPLPSRNVASGAPVQKEEPEQEEIAPSLPSRNSIPAPKQEEAPEQAPEEEIEEEAEEAAPQLPSRSSAAPPPPPRRATPEKKPKENPWATAEYDYDAAEDNELTFVENDKIINIEFVDDIWWLGELEKDGSKGLFPSNYVSLGN [chain 1 D568I]
-3.01 | chain 1 MALEPIDYTTHSREIDAEYLKIVRGSDPDTTWLIISPNAKKEYEPESTGSSFHDFLQLFDETKVQYGLARVSPPGSDVEKIIIIGWCPDSAPLKTRASFAANFAAVANNLFKGYHVQVTARDEDDLDENELLMKISNAAGARYSIQTSSKQQGKASTPPVKKSFTPSKSPAPVSKKEPVKTPSPAPAAKISSRVNDNNDDDDWNEPELKERDFDQAPLKPNQSSYKPIGKIDLQKVIAEEKAKEDPRLVQKPTAAGSKIDPSSDIANLKNESKLKRDSEFNSFLGTTKPPSMTESSLKNDDDKVIKGFRNEKSPAQLWAERKAKQNSGNAETKAEAPKPEVPEDEPEGEPDVKDLKSKFEGLAASEKEEEEMENKFAPPPKKSEPTIISPKPFSKPQEPVKAEEAEQPKTDYKKIGNPLPGMHIEADNEEEPEENDDDWDDDEDEAAQPPLPSRNVASGAPVQKEEPEQEEIAPSLPSRNSIPAPKQEEAPEQAPEEEIEEEAEEAAPQLPSRSSAAPPPPPRRATPEKKPKENPWATAEYDYDAAEDNELTFVENDKIINIEFVDDQWWLGELEKDGSKGLFPSNYVSLGN [chain 1 D568Q]
